Positions of bridges follow the written chain, without caps; N, C: chain ends. No end group written: not given here.
T1: hu-IL-2Rβ subunit (human, UniProt P14784 27-240, limits assumed)
T1 construct: also called human interleukin-2 receptor subunit β; CD122
T1 sequence (looked up): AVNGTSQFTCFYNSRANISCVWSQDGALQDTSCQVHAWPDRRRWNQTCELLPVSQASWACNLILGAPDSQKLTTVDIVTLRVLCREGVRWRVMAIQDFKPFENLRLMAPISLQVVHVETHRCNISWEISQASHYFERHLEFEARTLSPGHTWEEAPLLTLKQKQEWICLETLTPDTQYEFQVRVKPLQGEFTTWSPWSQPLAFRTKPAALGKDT


What follows are binders tested against T1, hu-IL-2Rβ subunit (assay: phage ELISA competition assay).

IC50, < 100 µM:
MYPCWIAHLGELCDLD [SEQ ID NO 389]
SGTGPAWYPCFLASLGQLCDLE [SEQ ID NO 383]
WYPCWLAHLGELCDLDWKGRND [SEQ ID NO 416]
QTWYLPCWMAKLGELCDLGERD [SEQ ID NO 434]
RKHFYPCWMAQLGELCDLEGMP [SEQ ID NO 99]
FRVSRDWFPCWMAQLGEVCDLE (disulfide 10-19 (inferred)) [SEQ ID NO 412]
WWPCSIARLGQLCDLD [SEQ ID NO 394]
RDIWWPCWVAQLGELCDLDDPQ [SEQ ID NO 372]
WRPCWMAHLGDLCDLEMANENP [SEQ ID NO 423]
WHPCWMARLGELCDLD [SEQ ID NO 380]
WTPCWIAQLGELCDLEGRHGTV [SEQ ID NO 419]
DIGYYPCWMAQVGDLCDLDDEK [SEQ ID NO 100]
WLPCWMADVGDLCDLD [SEQ ID NO 379]
WYPCWLAQLGELCDAE [SEQ ID NO 396]
YAEWYPCWMARVGEVCDLEVTP [SEQ ID NO 374]
TEMWYPCWMAYQGELCDLDMTY [SEQ ID NO 426]
VASERFYPCWIARLGELCDVE (disulfide 9-18 (inferred)) [SEQ ID NO 414]
RQVPKQWYPCWMAALGELCDLE [SEQ ID NO 368]
RSGDKAFFPCWLAQLGDLCDLD [SEQ ID NO 375]
AMARRYLPCWIAKLGELCELD (disulfide 9-18 (inferred)) [SEQ ID NO 409]
ARTWWPCWRAKLGELCDLVVPE [SEQ ID NO 427]
QTKLEGWYPCWMAQLGELCDLD [SEQ ID NO 104]
SQRWYPCWVAHLGELCDLEGVV [SEQ ID NO 432]
QVMRLWYPCWMAQLGELCDLE [SEQ ID NO 370]
LGSKRQWYPCWVAHLGELCDLE [SEQ ID NO 400]
WSPCWMASLGDLCDLEETRQTE [SEQ ID NO 418]
RVSYPCWLARLGELCDMDLEE [SEQ ID NO 377]
WGRKEQWLPCWKAQLGELCDLE [SEQ ID NO 105]
RPPWYPCWMARLGEVCDMDIML [SEQ ID NO 431]
LPCWIAQLGDLCDLEPEPSPE [SEQ ID NO 420]
WYPCWLASLGEVCDLE [SEQ ID NO 393]
WLPCYMAQLGDLCDLE [SEQ ID NO 391]
YLERSRWYPCFIAQLGELCDLE [SEQ ID NO 411]
KGSWQPCWFAKLGELCDLHPTS [SEQ ID NO 433]
TESWYPCWLANLGDLCDLEWSA [SEQ ID NO 378]
WYPCWRAQLGELCDLVDLGSHL (disulfide 4-13 (inferred)) [SEQ ID NO 417]
WYPCWLAQLGEVCDLDDGGGVF [SEQ ID NO 424]
QGTKWHWNPCWMAQLGELCDLD [SEQ ID NO 381]
WKPCWMALLGELCDLE [SEQ ID NO 397]
ARGEYRWFPCWMARLGELCDLE [SEQ ID NO 410]
LSSKGWYPCWKARLGDLCDLE (disulfide 9-18 (inferred)) [SEQ ID NO 404]
WWPCWMAQLGEMCDLEYPYVPG [SEQ ID NO 103]
FYPCWAAHLGDLCDLEYQEAGP [SEQ ID NO 421]
EEQSRGFLPCWMALLGELCDLD [SEQ ID NO 399]
IERAWEWRPCWLASVGELCDLE [SEQ ID NO 413]
WYPCSIASLGELCDLE [SEQ ID NO 390]
VDEFYPCSMAGLGELCDLERQN [SEQ ID NO 429]
MTDRAFWNPCWVARLGELCDLD [SEQ ID NO 406]
DSDWWPCWMAQLGELCDLEDAR [SEQ ID NO 101]
DMFTHRWYPCSMAKLGELCDLE [SEQ ID NO 405]
WYPCWIAKLGEVCDLDQGTTRQ [SEQ ID NO 415]
LFPCWLAQLGELCDLE [SEQ ID NO 386]
NVTYTQWFPCWLARLGELCDLV [SEQ ID NO 407]
WLPCWLAPLGDLCDMDMSAVMN [SEQ ID NO 422]
WYPCWMAQLGELCDLDEAPVQP [SEQ ID NO 371]
SATWYPCFLANLGELCDLEQEN [SEQ ID NO 373]
KNGPKSWYPCWMAQVGDLCDLD [SEQ ID NO 382]
WLPCWRAQLGQLCDLD [SEQ ID NO 385]
RWTQAQWYPCWLAQLGELCDLE [SEQ ID NO 402]
VRTRIWYPCWSAQLGELCDLD [SEQ ID NO 408]
GERWKPCWIAQLGELCDLDFNW [SEQ ID NO 102]
RYPCWRAKLGELCDLD [SEQ ID NO 398]
AWDWYPCSVAALGEICDLDIQD [SEQ ID NO 430]
ESEGRGWYPCWNALLGELCDLE (disulfide 10-19 (inferred)) [SEQ ID NO 401]
HQGFYSCRLARLGELCDLDTGW [SEQ ID NO 428]
LHAGRWNPCWLAQLGELCDLE [SEQ ID NO 403]
